Ki data for 1 molecule are collected here from PMC9774438 (2022).

The target of assay [1] is T1, pept_1545 (synthetic construct).
T1 chain: FLIGKAIKRKFCLRSVWNA
In words: Amplex Red peroxidase activity assay (varying Amplex Red, mixed inhibition).

Assay [2] deals with T2, Hm-AMP8 (synthetic construct).
T2 chain: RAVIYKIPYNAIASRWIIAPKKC
The assay is described as above.

For assay [3], the target named is T1, pept_1545. In words: Amplex Red peroxidase activity assay (varying H2O2, uncompetitive inhibition).
Assay [4] concerns the target T2, Hm-AMP8. The assay is described as above.
For assay [5], the target named is T1, pept_1545. In words: Celestine Blue B chlorinating activity assay (varying Cl-, competitive inhibition).
Assay [6] concerns the target T2, Hm-AMP8. In words: Celestine Blue B chlorinating activity assay (varying Cl-, uncompetitive inhibition).
The target in assay [7] is T1, pept_1545. In words: Celestine Blue B chlorinating activity assay (varying H2O2, uncompetitive inhibition).
The target of assay [8] is T2, Hm-AMP8. The assay is described as above.

As a reminder, the Ki is a measure of affinity in units of concentration, obtained from inhibition or displacement.

B1: Myeloperoxidase (protein)
chain: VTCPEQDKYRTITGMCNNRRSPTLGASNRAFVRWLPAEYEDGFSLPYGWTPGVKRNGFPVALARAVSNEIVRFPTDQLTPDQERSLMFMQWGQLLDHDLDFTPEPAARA
Consider B1, for which the Ki with pept_1545 [1] came to 48.3 µM; with Hm-AMP8 [2] it was 1.1 µM; with pept_1545 [3], 52.8 µM; with Hm-AMP8 [4], 1.79 µM; in the assay with pept_1545 [5], 19.5 µM; in the assay with Hm-AMP8 [6], 0.42 µM. Also, the results for the inhibition constant (Ki) in the assay with pept_1545 [7] and in the assay with Hm-AMP8 [8] were 10.8 µM and 0.28 µM, respectively.
